This is an account of results in US20130005646A1 (Novo Nordisk, published 2013).

For test [1], the target named is T1, human amylin 3(a) receptor (human calcitonin receptor + RAMP-3) (human, UniProt P30988 25-474; O60896 24-148).
T1 sequence (looked up) 1: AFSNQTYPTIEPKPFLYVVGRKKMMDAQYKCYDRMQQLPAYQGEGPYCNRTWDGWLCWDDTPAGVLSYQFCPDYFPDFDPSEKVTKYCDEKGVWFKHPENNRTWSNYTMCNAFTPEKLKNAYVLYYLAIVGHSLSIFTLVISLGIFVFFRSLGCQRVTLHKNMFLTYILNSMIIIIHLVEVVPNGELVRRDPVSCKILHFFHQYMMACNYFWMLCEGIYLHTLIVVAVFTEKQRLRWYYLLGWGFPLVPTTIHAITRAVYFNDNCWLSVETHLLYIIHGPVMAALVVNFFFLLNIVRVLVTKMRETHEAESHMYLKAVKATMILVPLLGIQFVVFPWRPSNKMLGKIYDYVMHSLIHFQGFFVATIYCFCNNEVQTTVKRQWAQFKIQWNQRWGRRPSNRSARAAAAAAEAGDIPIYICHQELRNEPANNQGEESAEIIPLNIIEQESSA
T1 sequence (looked up) 2: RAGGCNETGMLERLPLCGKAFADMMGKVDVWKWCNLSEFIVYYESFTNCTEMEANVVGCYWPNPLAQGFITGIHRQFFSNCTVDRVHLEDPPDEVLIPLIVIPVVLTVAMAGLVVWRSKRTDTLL
Description: cell-based or functional assay.

The target in test [2] is T2, human calcitonin (a) receptor (human, UniProt P30988 25-474).
T2 sequence (looked up): T1 sequence (looked up) 1
The experiment in a line: cell-based or functional assay.

Starred links: 1 amine or outer side, 2 acyl side, 3 side chain; linkers in the order of their positions; H or OH if unused. Positions of bridges follow the written chain, without caps; N, C: chain ends. Groups on a side chain read outwards from the residue. No end group written: not given here. *: point of attachment. X1 = (S)‑4‑Carboxy‑4‑(19-carboxynonadecanoylamino)butyryl, O=C(O)CCCCCCCCCCCCCCCCCCC(=O)N[C@@H](CCC(=O)*)C(=O)O; C20 diacid = O=C(O)CCCCCCCCCCCCCCCCCCC(=O)*; γGlu = O=C(O)[C@H](CCC(=O)[*:2])N[*:1]; AEEA = NCCOCCOCC(=O)O

Regarding KCNTATCATQRLAEFLHHSSK([AEEA-AEEA-γGlu-19‑carboxyheptadecanoyl])NFGPILSPTNVGSHTY-NH2 (disulfide 2-7), the “Amylin receptor human EC50” value in test [1] came to 0.625 nM. Further, the “CTa receptor human EC50” value in test [2] came out at 0.347 nM.
Turning to KCNTATCATQRLANFLHHSSNNFGK([AEEA-AEEA-γGlu-19‑carboxyheptadecanoyl])ILSSTNVGSHTY-NH2 (disulfide 2-7), the “Amylin receptor human EC50” value in test [1] turned out to be 0.199 nM. Besides, in test [2], the “CTa receptor human EC50” value came to 0.114 nM.
The corresponding values for KCNTATCATQRLAEFLHHSSNNFGK([AEEA-AEEA-γGlu-19‑carboxyheptadecanoyl])ILSSTNVGSHTY-NH2 (disulfide 2-7) are 0.301 nM and 0.111 nM.
On to KCNTATCATQRLANFLHHSSK([AEEA-AEEA-γGlu-19‑carboxyheptadecanoyl])NFGPILSPTNVGSHTY-NH2 (disulfide 2-7), for which, in test [1], the “Amylin receptor human EC50” value was determined as 0.482 nM. For the same molecule, the “CTa receptor human EC50” value in test [2] was determined as 0.889 nM.

B1: N-alpha-[(S)-4-Carboxy-4-(19-carboxynonadecanoylamino)butyryl]-[His1,Glu14,Arg18,Pro37]-pramlintide (peptide)
peptide: X1-HCNTATCATQRLAEFLVRSSNNFGPILPPTNVGSNTP-NH2
modifications: disulfide 2-7
SMILES: CC[C@H](C)[C@H](NC(=O)[C@@H]1CCCN1C(=O)CNC(=O)[C@H](Cc1ccccc1)NC(=O)[C@H](CC(N)=O)NC(=O)[C@H](CC(N)=O)NC(=O)[C@H](CO)NC(=O)[C@H](CO)NC(=O)[C@H](CCCNC(=N)N)NC(=O)[C@@H](NC(=O)[C@H](CC(C)C)NC(=O)[C@H](Cc1ccccc1)NC(=O)[C@H](CCC(=O)O)NC(=O)[C@H](C)NC(=O)[C@H](CC(C)C)NC(=O)[C@H](CCCNC(=N)N)NC(=O)[C@H](CCC(N)=O)NC(=O)[C@@H](NC(=O)[C@H](C)NC(=O)[C@@H]1CSSC[C@H](NC(=O)[C@H](Cc2c[nH]cn2)NC(=O)CC[C@H](NC(=O)CCCCCCCCCCCCCCCCCCC(=O)O)C(=O)O)C(=O)N[C@@H](CC(N)=O)C(=O)N[C@@H]([C@@H](C)O)C(=O)N[C@@H](C)C(=O)N[C@@H]([C@@H](C)O)C(=O)N1)[C@@H](C)O)C(C)C)C(=O)N[C@@H](CC(C)C)C(=O)N1CCC[C@H]1C(=O)N1CCC[C@H]1C(=O)N[C@H](C(=O)N[C@@H](CC(N)=O)C(=O)N[C@H](C(=O)NCC(=O)N[C@@H](CO)C(=O)N[C@@H](CC(N)=O)C(=O)N[C@H](C(=O)N1CCC[C@H]1C(N)=O)[C@@H](C)O)C(C)C)[C@@H](C)O
With B1, in test [1], the “Amylin receptor human EC50” value is 0.0415 nM. Moreover, the “CTa receptor human EC50” value in test [2] turned out to be 0.022 nM.

B2: N-alpha-[(S)-4-Carboxy-4-(19-carboxynonadecanoylamino)butyryl]-[Glu14,Gln21,Gln35,Pro37]-pramlintide (peptide)
peptide: {C20 diacid-γGlu}-KCNTATCATQRLAEFLVHSSQNFGPILPPTNVGSQTP-NH2
modifications: disulfide 2-7
SMILES: CC[C@H](C)[C@H](NC(=O)[C@@H]1CCCN1C(=O)CNC(=O)[C@H](Cc1ccccc1)NC(=O)[C@H](CC(N)=O)NC(=O)[C@H](CCC(N)=O)NC(=O)[C@H](CO)NC(=O)[C@H](CO)NC(=O)[C@H](Cc1c[nH]cn1)NC(=O)[C@@H](NC(=O)[C@H](CC(C)C)NC(=O)[C@H](Cc1ccccc1)NC(=O)[C@H](CCC(=O)O)NC(=O)[C@H](C)NC(=O)[C@H](CC(C)C)NC(=O)[C@H](CCCNC(=N)N)NC(=O)[C@H](CCC(N)=O)NC(=O)[C@@H](NC(=O)[C@H](C)NC(=O)[C@@H]1CSSC[C@H](NC(=O)[C@H](CCCCN)NC(=O)CC[C@H](NC(=O)CCCCCCCCCCCCCCCCCCC(=O)O)C(=O)O)C(=O)N[C@@H](CC(N)=O)C(=O)N[C@@H]([C@@H](C)O)C(=O)N[C@@H](C)C(=O)N[C@@H]([C@@H](C)O)C(=O)N1)[C@@H](C)O)C(C)C)C(=O)N[C@@H](CC(C)C)C(=O)N1CCC[C@H]1C(=O)N1CCC[C@H]1C(=O)N[C@H](C(=O)N[C@@H](CC(N)=O)C(=O)N[C@H](C(=O)NCC(=O)N[C@@H](CO)C(=O)N[C@@H](CCC(N)=O)C(=O)N[C@H](C(=O)N1CCC[C@H]1C(N)=O)[C@@H](C)O)C(C)C)[C@@H](C)O
As to B2, in test [1], the “Amylin receptor human EC50” value is 0.107 nM. The “CTa receptor human EC50” value in test [2] is 0.0585 nM.
